The domain aggregation screens of Martell et al. (2025)

experiment: soluble fraction after stress (log2 fold change); higher = more stays soluble; pooled small domains, quantitative proteomics; conditions: stress: pH 4
Procedure, shortened: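 With high-throughput quantitative proteomics, pooled custom libraries of small protein domains were measured after pH 4 stress. Each domain's soluble amount after the stress gives a fold change taken as aggregation propensity. Higher log2 values mean more of the domain stayed soluble.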

Compared with “HMVDLDIENYELEDILNLFRLQYNFVEADLKRAYRMALKLHPDKSGLDGEYFRFYMKAYKIVENIFNFRNR”, “HMTHRRLELTLDAIDERLDRALTAAVPELSRMQWQRLIREGLVTVDGERARPSYRIQGGETLVALVPEV” is higher in “soluble fraction (log2)” value: -1.38 for the first, -0.167 for the second.

Going from “HMIGELVVEDLAAASEINVDTIRYYQRLGLLEPPRRRGRRAVYDHTHLERLAEIRRLAGAGFTLAQIGRLK” to “HMIRDTTMYPVSVNGKKRYEWTVSKSISDDELKQQVLELEEIKKWIEGHEIKKLIFVPGRAINIV”, the “soluble fraction (log2)” value rises from -1.23 to -0.743.

First: HMKKMEEEFALFNAWVDRRLGIPLAAYKENQMQRRILTIMENSGAKTLREYQQLIEGDEGVRAAFLAHIT
Second: HMSYTAYLSQELGDMSREIQSELLKKGYNGSSSFTIVRTYMGSSVKFSVYNANNGELITSKTINM
The “soluble fraction (log2)” value of the first is lower: -1.76 for the first, -0.306 for the second.

First: HMTGSLRVTSSPSGAEIYVDEIYRGYTPLTIGSLSTGRHEVRLHLSGYQDYTRTVEIESGSQSSFSVTLT
Second: HMGGYVTGTIDLTKFGYAFVITEESEDDVFVAARNLNTALHGDQVKVLLYARHKGKRPEGEVVEIISRSRA
The “soluble fraction (log2)” value of the first is higher: 0.0547 for the first, -1.4 for the second.

“HMAFEITSAERTRLEDIARKGLTAYTAEWKQLPASEKKALNKTGLQDFLKSMAADADSAREEEA” and “HMGGSLADAKRFLADLLADGPVPAKGVRADADGAGHTWPTIRRAQKALGIEATKTGMKGGWVWALPR” are within 0.2 log units of each other in “soluble fraction (log2)” value: 0.0412 for the first, 0.00461 for the second.

Compared with “HMRIVSGRESMLGRTVVVADWAGERGHVVVDGERWNAVASTPLAAGRRARIVGIDGLTLSVSPDDKP”, “HMKTELAYDFHSRIRDARIREGLSQVDLAKRMNEKIAVIQKAENGIRPTDSLIAKFSKALSVELYVE” is lower in “soluble fraction (log2)” value: 0.0452 for the first, -0.604 for the second.

Going from “HMRSNADALIGRTARVSQTIVENGFGRVALDGDDWKAQAADGSRIEEGQNVIVKDRDSIILTVEKE” to “HMKKDRKKMLKEGIVLFEKILRGMELSPTSEPLKKVLTSFNIQNKEDLYVKLGAGVISSEEVIKELKKK”, the “soluble fraction (log2)” value rises from 0.256 to ≥ 0.43.

Compared with “HMEGRHFRILYILLNNERVTAPELAEEFGVSVRTIYRDIDTMSAAGIPIYMQGGRKGGIYLLEGY”, “HMDENVVLRKVAREAFVIEYVRGIRAIDPGIGGPKLWLMYKREFGDNDTVGRDTFEDILDRNNLKVRI” is higher in “soluble fraction (log2)” value: -1.61 for the first, -0.363 for the second.

First: HMEVEADEFQQLLRSGEYVQALDRARANQDIGLRQQQIVQIARHQAASGIQAGAMGSLASLYQF
Second: HMLPDLQESIDELLNIVDQRLNTSFEELVSGVNTTEKAIAFFLALLETIKWGFIKAEQTNNENKINIEKNY
The “soluble fraction (log2)” value of the first is higher: -0.461 for the first, -1.4 for the second.

First: HMNAVYPNPFVSEIYIGENNRSVEIYNLNGGLVYGMSQPSSRIDVSGLAAGSYILIKKDSSGHISSHKIMK
Second: HMSAEVEVPDVVGRQVALAVQLIETKKLRVNVAETYDAKVPPGQVISQSPEAGMKVKEERVITIYVSR
The “soluble fraction (log2)” value of the first is lower: -0.261 for the first, 0.153 for the second.

“HMTPVTYELTVQSGAGQRIDKYLSEQLADLTRSYLQKLLKDGGVTVNGKTVKSNYKLSENDQIFLEVPDA” and “HMEKVTAPMPGVINSIVKNVGDTVKRGDVVLILEAMKMENEIVAPKEGKIASINVAKGASVNAGDVLFSI” are within 0.2 log units of each other in “soluble fraction (log2)” value: 0.0962 for the first, 0.197 for the second.

First: HMGRPWRIGDVVNVSRPTGDGGGFTKGLITRIYPTTVQVTWNPDLQHARPWTTMEKKQYLIFVYHDDE
Second: HMVDGAHKQQAAVQALTPALKVLAAAPEGKKGQAIQALRAVLKQHGRWLDDATAQQVHEQLLAAGDAQGWQ
The “soluble fraction (log2)” value of the first is higher: ≥ 0.43 for the first, 0.331 for the second.

First: HMSQVLVRINQDLNIRSGPGAQYDIIAVYRSGAIASVIGTYNNWYKVNFELDSKSYTGWINGTFTSR
Second: HMAKTGMDALVGRRVVLTKAIAGEGEGLVAVDGDVWRATSPAGSAIPKGTEVRITGYRSIVLEVEPI
The “soluble fraction (log2)” value of the first is lower: -0.245 for the first, 0.139 for the second.

Going from “HMDEIELLLQDAIQKLPEKQRMVFTLRYYDNLPYEEISKILDMSVSTLKTNYHYAKSKIEQYILDHS” to “HMPEPPRVGETLAALRQDRALSLDELSRQAGVSKSMLSQIERNQANPTVAVVWRLANALGVPMAELLGA”, the “soluble fraction (log2)” value rises from -0.839 to -0.192.

First: HMGTGTYQVWSANGLGVRMRSGPGTGYRILAVYSVGTSVTVLQKGAYWSYIRVGSRTGYMMNQFLVSG
Second: HMSDPELAIPRVVGLSGNDAQAALVKAGFSAVTVVTVKNSEVTSEQVTHVVPAEGAKAKASTPVTVVVSSS
The “soluble fraction (log2)” value of the first is lower: -0.268 for the first, 0.15 for the second.

Compared with “HMSWGDVKLTMWGAEEDQTMLREMADAFIEQNADKGNVTIEIGVQSESSAKDTVLADPESAADVFA”, “HMILNWSEYTRSEIIELARDLSPDKYMIIDDINTYSKMKLLPSQAFIAEMFGSLRQFQKEAWGRE” is lower in “soluble fraction (log2)” value: -0.106 for the first, -1.27 for the second.

Going from “HMQMSDTGAIEAMVKEALDENPQAIEDFKNGKGKALGFLMGQVMKKSKGQANGGIVNKLIKEELQKRIG” to “HMQQPIPGEAYLTRRPGSDHFQIAFTIDGHRVRESSGTSDKVAAAALAQKRYEEVWREIKLGEK”, the “soluble fraction (log2)” value falls from 0.315 to -0.0232.

Compared with “HMSGAWEVGLLRQFTDWMGTQYNAYAGRNFDAITVAQVAEKNPELLTPFVESFFKERVEPALAAG”, “HMDESIPVITYKDSVYANPKAFADAHKLPYKSLHNALSKARKEGKVRFMYKQYNFHLDNNGYIVAVS” is higher in “soluble fraction (log2)” value: -0.589 for the first, -0.195 for the second.

Going from “HMTGETWAERSRALAAAGLIVMGQEAKNKIEDLPSLSPLIEAAAASETRLLTGQIIDELLAFV” to “HMQQNDMTELRALAEKIISENDSVINDYKSGQGSALQFLIGQAMKETKGSANPQVISEIFTDLL”, the “soluble fraction (log2)” value rises from -1.04 to -0.548.

Compared with “HMGTTTGKVNATGVNFRTGPSTSYSSMGKLGIDTAVTILGKSGDWYQVKVNSTGKTGYVFAKYITITSVV”, “HMTESLVITVDPALHGLRLDRGLADALPDRSRSEVQRWIKEGRVQLHGAPAKPSLKLAAGDIVTIALPEE” is higher in “soluble fraction (log2)” value: -0.434 for the first, 0.236 for the second.

First: HMEGLEKDDGGYYFEKDNGERARNEWVYVEYEGKGYWYYMTDYGYPLRSAITPDGYKVNSNGHWIDEGN
Second: HMELTDRQKQIIEIVKKQQPISGEKIASILGFARATLRPDFSLLTMSGILQAKPKVGYLINEE
The “soluble fraction (log2)” value of the first is lower: -1.12 for the first, 0.158 for the second.

Compared with “HMSHFSERLKSLRQQSSITQAKLADDLNVTKSLISMYESGQRLPSFEMLETIADYFNVPLSSLV”, “HMLNSLDATQRLKLNKDGVVVFNFGKYVDQSVIDIFKKEKGYYNWMMSKDFSQQVKNIITKIYQEEIIG” is higher in “soluble fraction (log2)” value: -0.51 for the first, -0.0228 for the second.

Going from “HMSLNSELIARIENLIASIEDKRSWGYGFAESVLGQVQAGATLSPRQLEIIAKLEKENSYSVQLERQ” to “HMNRPYETLFTGLTTDEASAIVGKLEEYGAADYKIEGDTIKVPAAQEPDLKAKLLLDGYPKS”, the “soluble fraction (log2)” value rises from -0.479 to 0.0842.

First: HMEYFDDEELDRYKGRTSDSFTDDEAEEFREVMMTMHPEEVKAWNRSLILRDVAMPDQIKDDYIMLAG
Second: HMDEEEKGEVEVPNLIGLTRKEAKKTLEEEGLLIETKESLKTNLDDEYEKIKSQLPKAGIKIKQGSTVYVD
The “soluble fraction (log2)” value of the first is lower: -2.41 for the first, 0.183 for the second.

Compared with “HMNKEIEDYVATYSSMKAKEAAAIFDTMTSDLDLVAKILEAMSADDRAKILEQMNEENAARLTKMMD”, “HMDSIKDQIYQILKEDILTGELRSGEQLVEQTIAARFNTSRSPVREAIKQLTGDGLVINITNKGTFVK” is higher in “soluble fraction (log2)” value: -0.654 for the first, -0.0915 for the second.

First: HMKVSFEIEINGVTKSINSINEAKEAISELQDIMDNSTFGSEEFKNAATQIDKLQNKLVEALDK
Second: HMREKMKGKILDYNFQESRGIISADDGNRYSFENSQWKGTQSPKVNQIVDFEIDGQNAKDIYLDK
The “soluble fraction (log2)” value of the first is lower: -1.4 for the first, 0.0691 for the second.

“HMAPLATLEAGEDGSVKLPNLAGHSIREVAAALGGAKLSLIPIGSGTSWKQTPAPGAVLHSGDTVTVYF” and “HMDTINEYERNILSLITSKPGISAVQIAADTDKSIITAKRGIKTLVDGKLIEYRGSKKTGGYFLLTQS” are within 0.2 log units of each other in “soluble fraction (log2)” value: 0.0923 for the first, 0.275 for the second.

Going from “HMQASPADLLSDRELEVFQLTGEWKTTRQIAQELHLSVKTIEYYREQIKRKLNLKSAAELTQHATAWVQRG” to “HMRITEGEIVEIQEGDNRALVGVGEKLEGIISLDEIRGADGKLLFNVGDKITVMVMGHYNERPK”, the “soluble fraction (log2)” value falls from ≥ 0.43 to -0.429.

“HMNQDIIEIGNNIQKIRKKNGISQSVLAEKIDVAGNSIYRMEGATTVMGVDKLINIADALNTSPMDILPAR” and “HMVTPPMVVVDVQGEVKTPGVYHLPTNSRVNDAIKAAGGPKQSADLSYINQARMVKDGEQIYVEKKL” are within 0.2 log units of each other in “soluble fraction (log2)” value: 0.0428 for the first, 0.0679 for the second.

First: HMYEGLILINKYDSLVSAKLETNKIKSLGLFFEDMEEKIAVFSGPFKNNDINLKLDFLIRNGYLDAKIY
Second: HMINLTKVGNFISIIKLQQIWTIDELLKKVDINYDELLYLLTILSDIYSKNGEYFFDFDIDAENNKILFNN
The “soluble fraction (log2)” value of the first is lower: -1.53 for the first, -0.3 for the second.

Going from “HMADLKRLNEQIHYLGQYLSTKATYKEFLQANNKKIYRSEHQDEIAKYEEAAQFLKRSSPDGTIPTMKDLR” to “HMYYTAPDGRKREILDAALRLIAAGGPDSLTYRRVADEAGVPLGSLTYYFEAREDLIREAFRLYIAEASR”, the “soluble fraction (log2)” value falls from 0.0861 to -1.6.

Compared with “HMFSAASSQISSYVRSVVDKAQTYEQAYEILAKNPLGFKLDALEDELFRIIANAEILGADDDE”, “HMIRVGRPQYKRGEFVSFDFDNGRKKTEMYGRVDVIDSYGTFGQGREVSYDIRASDGILYKHIPESSVYGF” is higher in “soluble fraction (log2)” value: -1.24 for the first, 0.28 for the second.

Going from “HMTVMTGSQRRKKILELMRDAKEPLSGGALGKETGVSRHVVVQDIALLRTQGYPIVATARGYIINE” to “HMLASDYEEELSVLIKMSHKIAAGDDSLMDDFNDRVTMFESSYPINKATKDLTPVLERVNKFQT”, the “soluble fraction (log2)” value falls from ≥ 0.43 to -0.295.

Going from “HMLSAPMPGTVLEVHVKEGQRVREGQTLVVMEAMKMEHRVQAPRAGVVTKLHYSEGDRVDVGAILVEIG” to “HMREIDIWVAEDADSQRIDKYLSMVVEDLSRSRIASLIEGGSILVNGEVIRAKYKVKPADHITAAFEDEM”, the “soluble fraction (log2)” value rises from -1.31 to -0.938.

Going from “HMVTARMPDLFGLDEATAQRMVSNAGLTLKTEYAYSDQAEGYVFDQTPEANAEVRRGGTVTAMIS” to “HMRGPVRLDLPVSGLSRSSGPALAKILQAVPGVHKAHVNVRSGKATLEYDPARAKVTDFVEVIRSAGFGT”, the “soluble fraction (log2)” value rises from -0.375 to -0.072.

Compared with “HMVSMSFDDYVNDAKEYESEGDKDKAYNSYLEAYKLNKSSEEVLDYLIDNTEDVTLKLNYVYEYLDL”, “HMHDPRLPLPGTLLAREFQGRDIVVKVLDNGFEFDGRRYKSLSAIAQEVTGSKWNGFLFFGI” is higher in “soluble fraction (log2)” value: -0.32 for the first, -0.0393 for the second.

Going from “HMNVPYEMVTQNGEVFYKYKVQPGEGVFAVSRTFSVSVAEILRVNPEANKGLKNGQVLLIPVPKDMIA” to “HMASRTLSYSEFMSRVDSGDVTSVTLDGERIIMRTSNNQEFLSIKPEGEDISERLLAKNIEVRAEAQQ”, the “soluble fraction (log2)” value falls from -0.147 to -1.58.

With “HMSLQEISDLISQAERADQEQLKEVLKQLHQVESGNQPMSKGFLSSALSTLNKYPALITSIGQLLFKLAT” the “soluble fraction (log2)” value was -0.723.
